Here are results for 22 sequences from the DeepSol protein solubility set.

The series is described as follows: soluble on expression in E. coli; label from the status in PepcDB or PDB records.
Consider “MGSDKIHHHHHHMESEIKTRGFAIDVSRDKLTVAKAELVITQEKREVEVNEVREFKYDNEGIEELIKFLGEYKEGIMESTGPYFFYLHEELTEKGYKVTLINPLHLKEVFGKKTDKLDAQRLAKAFILGAVKGSYIPTGEIRELRELTRYRESLMRKITQVKNEIRKFLEMAGYKIEPFDKRGMALLEKLSRGEGLSKEERDELKEKLGRSLNDAEKLALKQLVDLLKSLEAMVKEVEDMIISKIPQPVVELSRELV”, for which the “soluble on expression in E. coli” value is “not soluble”.

On to “MEQQRSFQTETGGHLYLVPTPIGNLDDMTFRAVKTLTAVDLIAAEDTRNTQKLLNHFEITTKQISFHEHNTQERIPQLIAKLKQGMQIAQVSDAGMPSISDPGHELVNACIDAHIPVVPLPGANAGLTALIASGLAPQPFYFYGFLDRKPKDRKAEIAGLAQRPETLIFYEAPHRLKKTLQNLAAGFGDERPAVLCRELTKRYEEFLRGSLAELANWAATDTVRGEFVVLVGGNPAPTTAATTAVDLSEPIDVQVDRLIAAGEKPNDAIKEVAKLRGAKKQEIYRQYHHLDEE”, for which the “soluble on expression in E. coli” value is reported as “soluble”.

Turning to “AKVNIKPLEDKILVQANEAETTTASGLVIPDTAKEKPQEGTVVAVGPGRWDEDGEKRIPLDVAEGDTVIYSKYGGTEIKYNGEEYLILSARDVLAVVSK”, the “soluble on expression in E. coli” value is given as “soluble”.

With “MHQVYVDIIVDAIIEQYQTEENFYSAYQIQAADWQAWKEGQFGLDNEVMQKIKNLFTDYEWMLTQKILRQTILFPEKRNLAVSEYKRLKTTIAKKWLQSDLGVVELIPNNKQEQEIAAGYIDLKVTLAYGEWGFDDIITFRLPATIQRQLEGSKVELLDWVNENLMDTYVGE”, the “soluble on expression in E. coli” value is reported as “not soluble”.

For “MEKLEALKRLFPGKVDLSESERLRHGKDEGYPEARPVLAVVYPEGVEDVQKALRWAREWGVAVIPFGAGTSLEGHLYPVREAISLDLSRMNRVLEVRPQDFSCVVEPGLTRKALNEALKGTGLFFPVDPGADASLGGMAATNASGTTTVRYGGMRQNVLALQVVLASGEVLELGRGVRKTSSGYDLKDLFIGSEGTLGVITRLTLRLHPLPEHVHTLRVFFPGVEEAAEASYRIMASGLPVARLELLDELAMRALNRYLKAGFPERPALFLEFHASTKEALEAERASALELVREAGALEVEAATTEEERRRQWEARHQAYWALVHLFPGHRFMITDTAVPLSRLPEMVRFAQGLLREMGLTGNILGHVGDGNFHTLIPVLPEDYPKAEAYAERLVEKALELGGTCTAEHGVGLRKRKFLPKEHGPALEWMRRLKALFDPEGLLNPGKVV”, the “soluble on expression in E. coli” value is on record as “soluble”.

Regarding “MKTGVTGPYTFGVGLITYLCSKEIYVMEHEYYSGLSLGIMAIIAVKKLGPVIAKWADGEIDKIESEWKEGREAELKVLSDAIEAEKKEQWRADGALLLMEAKKENIALQLEAAFRERAMNVYSEVNRPLDYQVECRHVERRLSQKHMVNWITTNVLASISPQQEKETLNKCIADLSALALRVKSALEHHHHHH”, the “soluble on expression in E. coli” value is “not soluble”.

As to “MQPGYNGHGRGIYNFIGMTANRRSNLHNTVALDPDILTDTFQQCLFYQYAQCSILLMKEGATGFPFALYAPSTVSSYLYMR”, the “soluble on expression in E. coli” value is recorded as “not soluble”.

With “MSTSEMLELNRTIDRLRRAVGSLRSMYGDAASVRRLSNDLERLEIDARELDSSPPNVVHREPVERIKVSDTPYDASMWLGIDDEGLGGLHYERG”, the “soluble on expression in E. coli” value is “not soluble”.

On to “MGSDKIHHHHHHMRNLDITTLRSFVAVADTGGVTRAASFLHLTQSAVSMQLKRLEEMLGVELLDRSGRNIGLTSAGEQLLGFARKMLSLNDEIITRLTDQAFEGEVTLGVPHDVVHPVIPMVMQRFNVQFPRVKVNLCTSNTRDLKMDFAQGRFDLIVTTETTASEGGEVIHQMPLRWIGALGGQTWRQRPLRIGFCRNCIFRGLATAALDDAGIPWEMAVDSESDRTVEATVSADLAVGVLLEGTQPAHQQVIDHGGSLPQLPVQHINLYGAERSRAQYVDHLASLIRQGFAGLSQPGLRAVGTEMVSAPVQLGVV”, for which the “soluble on expression in E. coli” value is recorded as “not soluble”.

In the case of “MGSDKIHHHHHHMELDDAYANGAYIEGAADYPPRWAASAEDFRNSLQDRARLNLSYGEGDRHKFDLFLPEGTPVGLFVFVHGGYWMAFDKSSWSHLAVGALSKGWAVAMPSYELCPEVRISEITQQISQAVTAAAKEIDGPIVLAGHSAGGHLVARMLDPEVLPEAVGARIRNVVPISPLSDLRPLLRTSMNEKFKMDADAAIAESPVEMQNRYDAKVTVWVGGAERPAFLDQAIWLVEAWDADHVIAFEKHHFNVIEPLADPESDLVAVITA”, the “soluble on expression in E. coli” value is “not soluble”.

“MLNIDTQFVDTIGKILSDYVSHSEITRMGEVLGYPQNDQNSGFNKHKRVHNLVSDILNRTQNTDNIKLVIEYVCNPLRYINEVSIFEQLRTAINIPLSLKGLIVSDSGQIVTTTTSKTLSEAKKRFETLDSRLKELKVHPHVLKFCTQELLQENYFHAVFEASKGVFHRIRLLTGSAMDSASLIDQCFKPGEPIVIINGNKLQTLDEQSEYKGLKNLLLAIAHLYRNSKAHKLKYYNPDNLNDALTALTLMSLAHNLLDSCSNTRRLD”: the “soluble on expression in E. coli” value is reported as “soluble”.

For “MSLKSQNTLWKIRKIWAKFQRYTISYKQEIIGTFNPQAQMILMNHQSALDIIALEELYPKNLCWIAKKELGEIPIFKVAMKKPKLLCIDRKNPRDLVRVLKEAKERISEDRVLAIFPEGTRSKNEKMLKFQSGAKILSEKLNLKVQPILIVDSAKILDTKSFSASSGVLKIICMDLVDTNDEKWLENTRKKMQELLDQERAKLCEGHHHHHH”, the “soluble on expression in E. coli” value is on record as “not soluble”.

Consider “MFNTTPINIDKWLKENEGLLKPPVNNYCLHKGGFTVMIVGGPNERTGYHINPTPEWFYQKKGSMLLKVVDETDAEPKFIDIIINEGDSYLLPGNVPHSPVRFADTVGIVVEQDRPGGENDKIRWYCSHCRQVVHESELQMLDLGTQVKEAILDFENDVEKRTCFHCKTLNYARPQSN”, for which the “soluble on expression in E. coli” value is given as “soluble”.

For the sequence “MSLDNAMRNIFNGMMTTTSPASFETATRTGVVGGSFSYRTTNVNTNLVSMSFPKASVGCNGIDVFLGSFSMINGDQLVQVARGIAQGAAIYAFNVAVSAICADCAATINDIQNKLQALNKFAKDSCNATYSFLTENVGPPSQFANAVSSGPASMLGTLNGLLPDFGSSMTKSPETVTSQVKAKDPEEFAEKFSGNLFYMSFMDIDKGSMNIGGVTELSGYRLAEQLMSLVGTVIINWDAKGEKAGMEVRPSTMTVSDFIMGPPAGGSIKMLKCSPAPDPASARKSQCLVMSEVTDGGFKGLKDTISDLLIQVQTKAISDVRISDDELRIISYIGIPTILDSLQTFDVPEGYAYIQDISAIAATSLVINMLRQVEAKISAMNIPSESLSGRRQDLTRLSENLTNQVKAAYELTRSQVGNSSDVISAWDDRRLKRKAFMESLRGTGNEGHHHHHH”, the “soluble on expression in E. coli” value was “not soluble”.

As for “MGSDKIHHHHHHMDTIGRRLDMGKRIVLADPRGFCAGVDRAILTVRTILKSADTPRADGLPPVYVRRQIVHNKHVVEDLAAQGAVFVQELAEIPDAAAEAGIPIVFSAHGVSPAVKAEATARGMHVVDATCPLVSKVHREVLRFVKEGYEIIYIGHKGHDEAVGVVEESPEHVHLIEHASDVDSLDFQPDTKLVLLTQTTLSVDETAGTITALKARFPWLEMPPNSDICYATSNRQAAVKLVAEQADCVVIVGSANSSNSVRLMEVAQEGLSARYASKTAVGAAGRAHRVDDASELDPAWFEGVESVGISSGASVPDELVSGVVAALQELGYQDVSTIETIKENMHFVLPAELRK”, the “soluble on expression in E. coli” value is listed as “not soluble”.

As for “MGSDKIHHHHHHMIKYIALASVVLLVGCSSTAKKPIADDPFYAPVYPDTVPTQVAATGSIYLDSQASSLYSDIRAHRVGDIITVTLKESTQASKSANNEIKKGSDLSVEPVYAGGKNISISGVPIDLGYSDSMNTKRESDADQSNSLDGSISANIIQVLSNGNLVIRGEKWISINNGDEFIRVTGMIRSEDINPDNTIDSTRVANARIQYSGTGTFADSQKVGWLSSFFMSDWWPF”, the “soluble on expression in E. coli” value is listed as “not soluble”.

On to “RYTNILVPVDSSDAAQAAFTEAVNIAQRHQANLTALYVVDDSAYHTPALDPVLSELLDAEAAHAKDAMRQRQQFVATTSAPNLKTEISYGIPKHTIEDYAKQHPEIDLIVLGATGTNSPHRVAVGSTTSYVVDHAPCNVIVIR”, for which the “soluble on expression in E. coli” value is listed as “soluble”.

Consider “MTESDDHKLVLAISSRALFDLRDSHAVYMAEGVEAYRKYQIEHEDEILERGDAFTLVEKLLNLNASLSKARVEVVLVSRNSADTGLRVFNSIQHYGLDIARAAFAGGRSPYPYLAAFGCHLFLSTHAEDVRSALDAGFAAATILSGGARRAASAELRIAFDGDAVLFSDESERVYQSGGLAAFQASERESAREPLRGGPFKPFLAALNQLQREFPDASCPIRTALVTARSAPAHERVIRTLREWDIRLDESLFLGGLQKSAFLEAFAADVFFDDQPGHCEKAREVVATGHVPHGISNEIIPFDGGGAAALEHHHHHH”, for which the “soluble on expression in E. coli” value is on record as “not soluble”.

“MGHFSEKSGSLILRRSLFIVDAIYLKKFRKKTGLKQKEFALSSGLTLKSLRNYEQGKRKLTLEKYQEIKSHFGYLVENDSSRLQVMIDYVRITLKDVRDLEFFCRNFLHCAFKEFQPFESKLMNYNHLWKRGDIWIFDFADKHETGNFQITVQLSGRGCRQLELLMETEKFTWHDWLSYLRNSYRDDMNVTRFDIAIDELYLGKDRENEQFHLSDMISKYYRHELDFESLRTWNYIGGGSLNFSDMEEIEQNRQGISLYFGSRQSEMYFNFYEKRYEIAKQEGITVEEALEIFELWNRYEIRLSQSKANAAVDEFISGVPIGEISRGLIVSKIDVYDGKNEYGSFQADRKWQLMFGGVEPLKFVTKPEAYSIERTLRWLSDSVSPSLAMIREYDMIVDGDYLQTILNSGEVNERGEKILDSIKASLGIL”: the “soluble on expression in E. coli” value was “not soluble”.

On to “MGHHHHHHSHMASRWQNMGTSVRRRSLQHQEQLEDSKELQPVVSHQETSVGALGSLCRQFQRRLPLRAVNLNLRAGPSWKRLETPEPGQQGLQAAARSAKSALGAVSQRIQESCQSGTKWLVETQVKARRRKRGAQKGSGSPTHSLSQKSTRLSGAAPAHSAADPWEKEHHRLSVRMGSHAHPLRRSRREAAFRSPYSSTEPLCSPSESDSDLEPVGAGIQHLQKLSQELDEAIMAEERKQALSDRQGFILKDVYASP”, for which the “soluble on expression in E. coli” value is listed as “not soluble”.

With “VLPHARKVARETGIPEHFMIAQAALETGWGRHQIRRADNQPSFNLFGIKASGNWRGGVVETVTTEYVDGKPQKLREKFRTYDSYEDAFRDYAKLLQNNPRYAAVLKSRSATAFAWGLQQAGYATDPSYAEKLLKIINSDALSI”, the “soluble on expression in E. coli” value was “not soluble”.

Regarding “MAKASSSFVCQNCGAAFNRWQGKCEACGEWNTLVEEAGDNAVPVSIRAKRRGRTFKLESLAGKSNDAPRLPSGMAELDRVTGGGFVRGSVLLVGGDPGIGKSTLLTQATSLMAKAGHRTVYISGEEAIAQVRLRAERLGLASAPVELAAETSVEDIVATLSEGATPKLIVIDSIQTMWTDTVESAPGTVTQVRASAQALIRFAKKTGAAIILVGHVTKDGQIAGPRVVEHMVDAVLSFEGEGSQQFRILRSVKNRFGPTDEIGVFEMTGLGLREVSNPSELFLSERDLGSPGTAVFAGIEGTRPVLVELQALVAPSTLGTPRRAVVGWDSARLSMVLAVLEAHCGVKLSGYDVYFNVAGGLRINEPAADLAAAAALVSSLANAPLPTDAVYFGEISLSGAVRPVAQTPARLKEAAKLGFARAVLPEQTRGEAPADAGLALQSVGGLSSLVADIAARGTRRGDDDGAPRTKAASNATPARFRRQEALEHHHHHH”, the “soluble on expression in E. coli” value was “soluble”.
